Assay results taken from paper doi:10.1101/2023.10.11.561842.

Legend:
[1] = target: ErNaR, NDQ rhodopsin (light-driven sodium pump) from Erythrobacter sp. HL-111 (Erythrobacter sp. HL-111); assay: cryo-EM structure
[2] = target: ErNaR, NDQ rhodopsin (light-driven sodium pump) from Erythrobacter sp. HL-111 (Erythrobacter sp. HL-111); assay: SEC
[3] = target: ErNaR, NDQ rhodopsin (light-driven sodium pump) from Erythrobacter sp. HL-111 (Erythrobacter sp. HL-111); assay: cryo-EM structure; remark: listed apart in the source
[4] = target: ErNaR, NDQ rhodopsin (light-driven sodium pump) from Erythrobacter sp. HL-111 (Erythrobacter sp. HL-111); assay: SEC; remark: listed apart in the source

stoichiometry N [1]: 5
stoichiometry N [2]: 5
stoichiometry N [3]: 5
stoichiometry N [4]: 5
Substance: ErNaR, NDQ rhodopsin (light-driven sodium pump) from Erythrobacter sp. HL-111 (natural protein)
